Where “and” joins values, the source holds several entries; their conditions need not be identical. Equal values may be shown once.
Assays:
[1] = biological target: IZ-CD95L (after His-tag cleavage with TEV protease) (human); assay: SEC; Superdex 75 10/300 GL (Fig. 3A) or ENrich SEC 70 10 x 300 (Fig. 3B, C); PBS pH 7.4, 0.3 ml/min; sizes from a standard curve of protein standards; peak shares from Gaussian fits
[2] = biological target: CD95-His (Sino Biological) (UniProt P25445)
biotin-IZ-CD95L (human) = assay: SEC; Superdex 75 10/300 GL (Fig. 3A) or ENrich SEC 70 10 x 300 (Fig. 3B, C); PBS pH 7.4, 0.3 ml/min; sizes from a standard curve of protein standards; peak shares from Gaussian fits
[3] = biological target: CD95-His (Sino Biological) (UniProt P25445); assay: ELISA; CD95-His coated at 2 µg/ml in PBS overnight at 4 °C; biotin-IZ-CD95L or FLAG-CD95L 0.1 nM to 100 nM in 0.5% BSA/PBST, 2 h at r.t.; detected with anti-CD95L antibody and HRP secondary; 4-parameter logistic fit

CD95-His (Sino Biological), sequence (P25445 26-173): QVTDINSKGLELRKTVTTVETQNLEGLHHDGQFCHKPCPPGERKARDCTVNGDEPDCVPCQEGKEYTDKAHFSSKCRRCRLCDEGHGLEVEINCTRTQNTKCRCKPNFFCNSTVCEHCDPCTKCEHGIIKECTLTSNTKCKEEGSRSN

| Substance | percent of the protein in the trimer peak (Peak B, Gaussian fit) [1] | stoichiometry N [1] | Max (%) of apoptotic Hela WT cells (endogenous CD95), apoptosis dynamics assay, 1000 ng/ml ligand [2] | percent of the protein in the trimer peak (Peak B, Gaussian fit) (biotin-IZ-CD95L (human)) | stoichiometry N (biotin-IZ-CD95L (human)) | Kd [3] |
| --- | --- | --- | --- | --- | --- | --- |
| IZ-CD95L (after His-tag cleavage with TEV protease) (ligand) | 55% | 3 and 2 | 72.9% | – | – | – |
| biotin-IZ-CD95L (ligand) | – | – | 75.7% | 48% | 3 and 2 | 0.68 nM |

Reference: PMC12219679
